Experiment [1] has as its target human C-X-C chemokine receptor 2 (CXCR2) (human) (UniProt P25025). In words: flow cytometry, Alexa Fluor-488-conjugated control IgG1 on fixed HMC-1 cells (80 µg/ml per paragraph 49). On the technique in general: Flow cytometry measures light scatter and fluorescence of single cells or particles in a stream.
For experiment [2] the target is unchanged. In words: flow cytometry, Alexa Fluor-488-conjugated control IgG1 on fixed Panc-1 cells (80 µg/ml per paragraph 49).
For experiment [3] the target is unchanged. In words: flow cytometry, Alexa Fluor-488-conjugated control IgG1 on fixed MiaPaCa II cells (80 µg/ml per paragraph 49).
The target in experiment [4] is T1, CXCR2 antigen peptide (NICR2 peptide) (human, not fully specified).
T1 construct: The immunogen was this peptide conjugated with ovalbumin at its C-terminus ('-C-Ovalbumin')
T1 peptide: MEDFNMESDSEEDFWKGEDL
In words: SPR (Biacore), antibody flowed over the NICR2 peptide, Langmuir 1:1 fit. The text has this: Equilibrium affinity and rate constants derived from a Langmuir 1:1 binding kinetic analysis. The interactions between the humanized anti-CXCR2 mAb and the CXCR2 antigen peptide (NICR2 peptide) were detected by using SPR. The humanized anti-CXCR2 mAb flowed through the CXCR2 antigen peptide (NICR2 peptide) at the indicated concentrations. Data were corrected for nonspecific background binding. All data are representative of three independent experiments. […] Data shown is representative of 3 independent experiments.
The binding affinity of the humanized anti-CXCR2 monoclonal antibody (NICR2-5) was further investigated by surface plasmon resonance (SPR) Biacore technique. […] The binding of the humanized anti-CXCR2 mAb (NICR2-5) to cell surface receptor was analyzed by flow cytometry. Control IgG1 or humanized anti-CXCR2 mAb (NICR2-5) were conjugated with Alexa Fluor-488 fluorescent dye. Cancer cells were fixed with 3.5% formaldehyde for 15 min at room temperature. Fixed cells were incubated with fluorescent dye-conjugated IgG1 (80 μg/ml), or different concentrations of humanized anti-CXCR2 mAb (NICR2-5) (0, 40, 80 μg/ml) at 4° ° C. for 1 h. Cells were washed with phosphate-buffered saline (PBS) three times and subjected to flow cytometric analysis by using Attune NxT Flow Cytometer.
For orientation: In SPR one partner is held on a chip, and binding of the other changes the refractive index at the surface.

For orientation: Kd means the constant that tells how readily two partners part at equilibrium. High values mean weaker binding, low ones tighter binding.

Sequence of human C-X-C chemokine receptor 2 (CXCR2) (human) (P25025 whole entry): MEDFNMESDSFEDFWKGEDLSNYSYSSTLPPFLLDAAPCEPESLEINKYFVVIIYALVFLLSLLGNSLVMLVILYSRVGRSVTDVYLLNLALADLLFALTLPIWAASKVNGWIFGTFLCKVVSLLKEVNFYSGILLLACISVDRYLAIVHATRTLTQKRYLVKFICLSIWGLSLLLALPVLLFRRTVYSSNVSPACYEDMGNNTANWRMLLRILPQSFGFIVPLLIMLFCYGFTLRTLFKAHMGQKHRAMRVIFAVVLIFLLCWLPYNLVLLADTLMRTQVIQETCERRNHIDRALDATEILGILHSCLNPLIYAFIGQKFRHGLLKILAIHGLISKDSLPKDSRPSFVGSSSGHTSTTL

With hIgG (antibody), the Gated (%) in experiment [1] stood at 6.6%; in experiment [2] it was 8.2%; in experiment [3], 9.3%.

B1: humanized anti-CXCR2 monoclonal antibody (NICR2-5) (antibody, human IgG1, kappa, V domains shown)
VH: QITLKESGPTLVKPTQTLTLTCTFSGFSLRTSGMGVGWIRQPPGKALEWLAHIWWDDDKRYKPDLKSRLTITKDTSKNQVVLTMTNMDPVDTATYYCARLGLRLRTMDYWGQGTLVTVSS
VL: DIVMTQTPLSLSVTPGQPASISCRSSLSLVHSNGDTYLHWYLQKPGQSPQLLIYKVSNRFSGVPDRFSGSGSGTDFTLKISRVEAEDVGVYYCSQSTHVPTFGQGTKLEIKR
notes: CDRs cloned into human IgG1 vector; Conjugated with Alexa Fluor-488 for flow cytometry; also called anti-CXCR2 mAb; humanized anti-CXCR2 mAb (NICR2-5)
In experiment [4], B1 had a Kd of 0.3 nM.

The record behind these values is patent US20240166756A1 (KAOHSIUNG MEDICAL UNIVERSITY, published 2024).
